Drawing on paper PMC6793842, this text covers response (response units) and screen value for six variants.

B1: unnamed (parent)
chain 1: FENAIKKTKNQENNLTLLPIKSTEEEKDDIKNGKDIKKEIDNDKENIKTNNAKDHSTYIKSYLNTNVNDGLKYLFIPSHNSFIKKYSVFNQINDGMLLNEKNDVKNNEDYKNVDYKNVNFLQYDFKELSNYNIANSIDILQEKEGHLDFVIIPHYTFLDYYKHLSYNSIYHKYSTHGKYIAVDAFIKKINERYDQVKSKCNDIKNDLIATIKKLEHPYDINNKNDDSYRYDISEEIDDKSEETDDETEEVEDSIQDTDSNHTPSNKKKNDLMNRTFKKMMDEYNTKKKKLIKCIKNHENDFNKICMDMKNYGTNLFEQLSCYNNNFCNTNGIRYHYDEYIHKLILSVKSKNLNKDLSDMTNILQQSELLLTNLNKKMGSYIYIDTIKFIHKEMKHIFNRIEYHTKIINDKTKIIQDKIKLNIWRTFQKDELLKRILDMSNEYSLFITSDHLRQMLYNTFYSKEKHLNNIFHHLIYVLQMKFNDVPIKMEYFQTYKKNKPLTQ
chain 2: EPGTVFTTVEDLGSKILLTCSLNDSATEVTGHRWLKGGVVLKEDALPGQKTEFKVDSDDQWGEYSCVFLPEPMGTANIQLHGPPRVKAVKSSEHINEGETAMLVCKSESVPPVTDWAWYKITDSEDKALMNGSESRFFVSSSQGRSELHIENLNMEADPGQYRCNGTSSKGSDQAIITLRVRSHLAAL

This test covers variants of B1. The experiment in a line: SPR. The settings on record: read off a plot; for response (response units): with partner chain of the complex shown, plateau of the highest curve of four 2-fold serial dilutions (600 to 75 nM); for screen value: with partner chain of the complex shown;.

chain 1 H176Y: the response (response units) was determined as 340 and the screen value was found to be 2.4 s.
Consider chain 1 Y179C, for which the response (response units) turned out to be 130 and the screen value is 1.5 s.
For chain 1 Y173S, the response (response units) was 260 and the screen value was 2.3 s.
Taken in the same sequence, the figures for chain 1 R192T were 180 and 2.3 s.
In the case of chain 1 D124H, the response (response units) came to 220 and the screen value was determined as 2.6 s.
On to chain 1 Q195K, for which the response (response units) was determined as 360 and the screen value is 2.4 s.
